{
  "source": "patent US20040039175",
  "tested_on": "HIV-AB-KOX (synthetic construct)",
  "test": "cell_activity",
  "details": "LTR-luciferase, Jurkat, Tat+PMA+PHA",
  "data": [
    {"sequence": "AGCTTTCTACAAGGGACTTTCCGCTGGGGACTTTCCAGGGAGGCGTGGCCTGGGCGGGACTGGGGAGTGGCGTCCCTCAGATGCTGCATATAAGCAGCTGCTTTTTGCCTGTACTGGGTCTCTCTGGTTAGACCAGATCTGAGCCTGGGAGCTCTCTGGCTAACTAGGGAACCC (double strand) [HIV-1 LTR reporter]", "values": [
      {"measurement": "activity", "result": 96, "unit": "% inhibition"}
    ]}
  ]
}
